The values below come from publication PMC3814354, “Interaction of bacterial fatty-acid-displaced regulators with DNA is interrupted by tyrosine phosphorylation in the helix-turn-helix domain”.

Substitutions are numbered along the chain they refer to.

Holding throughout (settings): protein: recombinant; tags: N-terminal 6xHis (pQE-30); chain copies: 2; label: none (ethidium bromide stain); blunt
In one data set the target is T1, FatR Y45F (Bacillus subtilis, UniProt O08335 1-194, Y45F).
T1 sequence: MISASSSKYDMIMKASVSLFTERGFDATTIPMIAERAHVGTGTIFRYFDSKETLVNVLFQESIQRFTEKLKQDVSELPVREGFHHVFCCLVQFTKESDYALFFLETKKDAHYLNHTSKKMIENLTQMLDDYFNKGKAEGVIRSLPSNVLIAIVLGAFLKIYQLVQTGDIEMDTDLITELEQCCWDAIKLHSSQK
The experiment in a line: EMSA; 960 and 1920 pmol protein, 30 pmol DNA (up to 64:1); EMSA: 100 mM Tris-HCl pH 7.5, 15 min at 37 C, 8% native PAGE in Tris-glycine (2.5 mM Tris, 192 mM glycine), ethidium bromide stain.

The target of another data set is T2, FatR Y45E (Bacillus subtilis, UniProt O08335 1-194, Y45E).
T2 sequence: T1 sequence with F45E
Described as above.

In a further data set the target is T3, FatR wild type (Bacillus subtilis, UniProt O08335 1-194).
T3 sequence: T1 sequence with F45Y
The experiment in a line: EMSA; 120-1920 pmol protein, 30 pmol DNA (protein:DNA 4:1 to 64:1); EMSA: 100 mM Tris-HCl pH 7.5, 15 min at 37 C, 8% native PAGE in Tris-glycine (2.5 mM Tris, 192 mM glycine), ethidium bromide stain.

B1: fatR operator (BsOP1/BsOP2) (dsDNA)
DNA 1: TACGGAATGAATATTCATTCCTTT
DNA 2: AAAGGAATGAATATTCATTCCGTA
For the molecule B1, the binding result was “no binding” in the data set with FatR Y45F, “no binding” with FatR Y45E and “binds” in the data set with FatR wild type.
